Measurements as given in patent US20230313187A1, “MODIFICATIONS OF MAMMALIAN CELLS USING ARTIFICIAL MICRO-RNA TO ALTER THEIR PROPERTIES AND THE COMPOSITIONS OF THEIR PRODUCTS” (DNA TWOPOINTO INC., priority 2020, published 2023).

Columns and labels:
Type in all cases: cell-based
[1] = test system: Cricetulus griseus alpha-(1,6)-fucosyl transferase (FUT8) mRNA; assay: Antibody titer and fucosylation with different numbers of amiRNA hairpins in the 3' UTR of the glutamine synthetase selectable marker
Source text: One- two- or three-hairpin amiRNAs were incorporated into the 3′ UTR of a glutamine synthetase selectable marker on a transposon. The multi-hairpin amiRNA with nucleotide sequence SEQ ID NO: 194 comprised three hairpins as described in Section 6.1.1.1.
These amiRNA sequences were placed to the 3′ of an open reading frame encoding a glutamine synthetase protein (with polypeptide sequence SEQ ID NO: 307) and followed by a human globin polyadenylation sequence. The amiRNA genes were cloned into a transposon vector in which they were operably linked to a Pol II promoter. The transposon further comprised genes encoding an antibody with mature light chain polypeptide sequence SEQ ID NO: 286 and mature heavy chain polypeptide sequence SEQ ID NO: 288. The transposon further comprised a left end comprising a 5′-TTAA-3′ target sequence immediately followed by an ITR with nucleotide sequence SEQ ID NO: 423 (which is an embodiment of SEQ ID NO: 421) and additional nucleotide sequence SEQ ID NO: 417 and a right end comprising nucleotide sequence SEQ ID NO: 419 immediately followed by an ITR with nucleotide sequence SEQ ID NO: 424 (which is an embodiment of SEQ ID NO: 422) immediately followed by a 5′-TTAA-3′ target sequence. The transposon was configured so that the multi-hairpin amiRNA, the glutamine synthetase gene and the genes for both antibody chains, as well as all necessary operably linked control elements were transposable by a corresponding transposase.
Transposons were co-transfected with mRNA encoding transposase with polypeptide sequence SEQ ID NO: 472 into a CHO cell line with no functional glutamine synthetase gene. The pool of transfected cells were grown in the absence of glutamine added to the media until their viability reached 95%. They were then grown in a 14 day fed-batch using Sigma Advanced Fed Batch media. Protein was purified from the culture supernatant using protein A affinity chromatography, reduced with dithiothreitol, and analyzed on an Agilent QTOF mass spectrometer. We integrated the area under the peaks at 50,456 Da (corresponding to the heavy chain modified by G0: the conserved heptasaccharide core composed of 2 N-acetylglucosamine, 3 mannose and 2 other N-acetylglucosamine residues that are β-1,2 linked to α-6 mannose and α-3 mannose, forming two arms) and 50,602 (corresponding to the heavy chain modified by G0F: the conserved heptasaccharide core plus a fucose residue) to calculate the relative proportion of fucosylated and afucosylated antibody.
Table 5. Inhibition of antibody fucosylation with different numbers of amiRNA hairpins. Transposons were constructed as described in Section 6.1.2.1. The SEQ ID NO of the amiRNA gene including the glutamine synthetase ORF and the globin polyA sequence is given in column A. The Pol II promoter shown in column B was operably linked to the amiRNA whose SEQ ID NO is shown in column C. The amiRNA comprised the number of hairpins shown in column D. Following a 14-day fed batch antibody production run, the culture supernatant contained the concentration of antibody shown in column E. The percentage of antibody that was afucosylated is shown in column F, the percentage that was fucosylated is shown in column G. BDL=below detection limit.

[2] = test system: Cricetulus griseus alpha-(1,6)-fucosyl transferase (FUT8) mRNA; assay: Antibody titer and fucosylation with multi-hairpin amiRNA in the GS 3' UTR driven by different promoters and inhibitory 5' UTRs; settings: 14 day fed-batch
Source text: The three-hairpin amiRNA with nucleotide sequence SEQ ID NO: 194 was incorporated into the 3′ UTR of a glutamine synthetase selectable marker on a transposon. The amiRNA sequence was placed to the 3′ of an open reading frame encoding a glutamine synthetase protein with polypeptide sequence SEQ ID NO: 307 and was followed by a human globin polyadenylation sequence. The amiRNA gene was cloned into different transposon vectors in which it was operably linked to different Pol II promoters. Each transposon further comprised genes encoding an antibody with mature light chain polypeptide sequence SEQ ID NO: 286 and mature heavy chain polypeptide sequence SEQ ID NO: 288. […]
(§1) Transposons were co-transfected with mRNA encoding transposase with polypeptide sequence SEQ ID NO: 472 into a CHO cell line with no functional glutamine synthetase gene. […] Protein was purified from the culture supernatant using protein A affinity chromatography, reduced with dithiothreitol, and analyzed on an Agilent QTOF mass spectrometer. […]

[3] = test system: Cricetulus griseus alpha-(1,6)-fucosyl transferase (FUT8) mRNA; assay: CHO pool with amiRNA as host for transient production of afucosylated antibodies; settings: 7-day transient culture; amiRNA linked to EF1 promoter; FIG. 5B
Source text: The multi-hairpin amiRNA with nucleotide sequence SEQ ID NO: 194 comprised three hairpins with guides complementary to the mRNA for Cricetulus griseus alpha-(1,6)-fucosyl transferase (FUT8), as described in Section 6.1.1.1. The multi-hairpin amiRNA sequence was placed to the 3′ of an open reading frame encoding a red fluorescent protein (with nucleotide sequence SEQ ID NO: 279) and followed by a rabbit globin polyadenylation sequence. The multi-hairpin amiRNA gene was cloned into a Bombyx transposon vector in which it was operably linked to an EF1 promoter (with nucleotide sequence SEQ ID NO: 314). […] It further comprised an open reading frame encoding puromycin selectable marker with polypeptide sequence SEQ ID NO: 302. […]
as §1, with “NO: 502” for “NO: 472”, “line expressing” for “line with”, “no heterologous antibody sequences.” for “no functional glutamine synthetase gene.”

[4] = test system: Cricetulus griseus Neu2 mRNA; assay: Sialylation of an Fc fusion protein from CHO cells with Neu2-targeting amiRNA (capillary isoelectric focusing); settings: 14 day fed-batch; Fc fusion to a growth factor receptor; FIG. 6B vs reference standard
Source text: The multi-hairpin amiRNA was cloned into a piggyBac-like transposon to the 3′ of a spacer polynucleotide with nucleotide sequence SEQ ID NO: 280, and operably linked to a PGK promoter with nucleotide sequence SEQ ID NO: 385. The nucleotide sequence of the multi-hairpin amiRNA gene is given as SEQ ID NO: 593. The piggyBac-like transposon further comprised a selectable marker conferring resistance to puromycin with amino acid sequence SEQ ID NO: 302. The piggyBac-like transposon further comprised a target sequence 5′-TTAA-3′ immediately followed by an ITR with nucleotide sequence SEQ ID NO: 427, immediately followed by further transposon end sequences with nucleotide sequence SEQ ID NO: 425. The piggyBac-like transposon further comprised nucleotide sequence SEQ ID NO: 426, immediately followed by a second ITR with nucleotide sequence SEQ ID NO: 428, immediately followed by the target sequence 5′-TTAA-3′. […]
After the transfected cell pools had recovered to >95% viability, we tested their ability to produce sialylated protein. […] Protein was purified from the culture supernatant using protein A affinity chromatography, reduced with dithiothreitol, and analyzed by capillary isoelectric focusing (cIEF). […]

B1: SEQ ID NO: 194: three-hairpin amiRNA, guides SEQ ID NOs 23, 24, 25 to Cricetulus griseus FUT8 mRNA, unstructured sequences between hairpins (nucleic acid)
chain: ATCTGATCTTCTGAAGAAAATATATTTCTTTTTATTCATAGCTCTTAACTAGTGGTGATAGCAATGTCAGCAGTGCCTGGAAAAACATCCATTCTCATTCGTGAAGCCACAGATGGAATGAGAATAGATGTTTTTCAAAGTAAGGTTGACCATACTCTACTCTAGTTATATTCTTTAGGCACGAATGTGTGTTTAAAAAAAATAAAAACTAGTGGTGATAGCAATGTCAGCAGTGCCTTTAAATTACATAATGTGGCAGTGTGAAGCCACAGATGACTGCCACATCATGTAATTTACAAGTAAGGTTGACCATACTCTACTCTAGAGTTGTGTTTTAATGTATATTAATGTTACTAATGTGTTTACTAGTGGTGATAGCAATGTCAGCAGTGCCTTATTTTACTGTGCATGGGCTTGGTGAAGCCACAGATGCAAGCCCATGAACAGTAAAATCAAGTAAGGTTGACCATACTCTACTCTAGTCAGTTTTATTGATAGTCTTTTCAGTATTATTGATAATCTT
fucosylation of the antibody ([1]; CMV and EEF2 promoter operably linked to the amiRNA): completely eliminated fucosylation of the antibody | antibody titer in the culture supernatant ([1]; CMV promoter): 163 mg/L | antibody titer in the culture supernatant ([1]; EEF2 promoter): 443 mg/L | antibody titer ([1]; weaker (PGK) promoter operably linked to glutamine synthetase, amiRNA in 3' UTR): 835 mg/L | antibody fucosylation ([1]; weaker (PGK) promoter, amiRNA in GS 3' UTR, natural level around 80-85%): completely prevented | antibody fucosylation [2]: completely suppressed | antibody titer [2]: exceeded 3 g/L | antibody fucosylation (G0F peak) [3]: produced only afucosylated antibodies

B2: SEQ ID NO: 568: three-hairpin amiRNA, guides SEQ ID NOs 92, 91, 90 complementary to Cricetulus griseus Neu2 mRNA (nucleic acid)
chain: ATCTGATCTTCTGAAGAAAATATATTTCTTTTTATTCATAGCTCTTAACTAGTGGTGATAGCAATGTCAGCAGTGCCTATGAAGTCTATGAAGAGTCAGGGTGAAGCCACAGATGCCTGACTCTTAATAGACTTCACAAGTAAGGTTGACCATACTCTACTCTAGAGTTGTGTTTTAATGTATATTAATGTTACTAATGTGTTTACTAGTGGTGATAGCAATGTCAGCAGTGCCTTACAAGTTTACTCACTACCTGGGTGAAGCCACAGATGCCAGGTAGTGCGTAAACTTGTCAAGTAAGGTTGACCATACTCTACTCTAGGTTATTTTTAGTATGATTCTGTAAAAATGAATTAATACTAACTAGTGGTGATAGCAATGTCAGCAGTGCCTTAATTTATTAAGACTCATCCAAGTGAAGCCACAGATGTTGGATGAGTATTAATAAATTCAAGTAAGGTTGACCATACTCTACTCTAGTCAGTTTTATTGATAGTCTTTTCAGTATTATTGATAATCTT
sialylation of the produced protein (cIEF glycoform peaks) [4]: substantially reduces the removal of sialic acid from proteins produced by CHO cells
